In this test the target is Recombinant human WRN protein (wild type) (human, UniProt Q14191 1-1432). As to the kind of experiment: co-IP.
Recombinant human WRN protein (wild type), sequence (Q14191 whole entry): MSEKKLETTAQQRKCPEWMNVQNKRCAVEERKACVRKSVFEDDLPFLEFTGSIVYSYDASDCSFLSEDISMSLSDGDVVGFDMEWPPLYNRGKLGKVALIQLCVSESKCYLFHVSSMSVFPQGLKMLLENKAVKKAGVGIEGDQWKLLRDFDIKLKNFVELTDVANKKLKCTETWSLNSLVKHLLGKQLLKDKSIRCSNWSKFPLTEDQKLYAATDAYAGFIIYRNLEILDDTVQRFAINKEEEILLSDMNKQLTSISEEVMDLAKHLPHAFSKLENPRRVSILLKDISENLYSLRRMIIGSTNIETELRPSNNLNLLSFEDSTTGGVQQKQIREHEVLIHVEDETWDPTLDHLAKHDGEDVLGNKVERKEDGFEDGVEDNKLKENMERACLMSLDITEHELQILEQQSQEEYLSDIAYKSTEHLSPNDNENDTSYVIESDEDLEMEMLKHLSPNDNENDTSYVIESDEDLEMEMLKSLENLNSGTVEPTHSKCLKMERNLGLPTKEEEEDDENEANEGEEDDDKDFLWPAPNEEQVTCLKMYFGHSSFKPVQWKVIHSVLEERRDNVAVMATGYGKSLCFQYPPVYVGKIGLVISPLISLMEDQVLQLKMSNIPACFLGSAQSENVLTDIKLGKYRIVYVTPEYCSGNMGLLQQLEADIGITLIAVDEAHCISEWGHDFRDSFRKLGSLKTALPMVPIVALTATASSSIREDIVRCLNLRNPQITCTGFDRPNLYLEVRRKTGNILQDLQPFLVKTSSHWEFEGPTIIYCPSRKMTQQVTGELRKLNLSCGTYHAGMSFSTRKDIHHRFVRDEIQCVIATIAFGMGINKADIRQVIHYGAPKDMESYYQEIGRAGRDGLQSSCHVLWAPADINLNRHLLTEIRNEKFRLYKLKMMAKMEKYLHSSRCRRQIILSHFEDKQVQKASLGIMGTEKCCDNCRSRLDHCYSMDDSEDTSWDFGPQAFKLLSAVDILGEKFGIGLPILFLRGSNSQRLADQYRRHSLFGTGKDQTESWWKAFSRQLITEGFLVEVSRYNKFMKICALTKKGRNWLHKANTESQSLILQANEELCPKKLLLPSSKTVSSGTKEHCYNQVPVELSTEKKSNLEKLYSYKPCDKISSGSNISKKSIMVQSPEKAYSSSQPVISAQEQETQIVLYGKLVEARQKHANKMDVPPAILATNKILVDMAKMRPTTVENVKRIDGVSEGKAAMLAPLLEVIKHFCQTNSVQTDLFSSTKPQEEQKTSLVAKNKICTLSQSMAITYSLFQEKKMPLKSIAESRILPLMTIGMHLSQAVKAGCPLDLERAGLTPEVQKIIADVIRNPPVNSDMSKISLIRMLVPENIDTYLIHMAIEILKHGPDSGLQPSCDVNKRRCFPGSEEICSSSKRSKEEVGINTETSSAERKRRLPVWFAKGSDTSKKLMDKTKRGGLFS

B1: Recombinant human Polλ protein (enzyme, UniProt Q9UGP5 1-575, looked up)
chain: MDPRGILKAFPKRQKIHADASSKVLAKIPRREEGEEAEEWLSSLRAHVVRTGIGRARAELFEKQIVQHGGQLCPAQGPGVTHIVVDEGMDYERALRLLRLPQLPPGAQLVKSAWLSLCLQERRLVDVAGFSIFIPSRYLDHPQPSKAEQDASIPPGTHEALLQTALSPPPPPTRPVSPPQKAKEAPNTQAQPISDDEASDGEETQVSAADLEALISGHYPTSLEGDCEPSPAPAVLDKWVCAQPSSQKATNHNLHITEKLEVLAKAYSVQGDKWRALGYAKAINALKSFHKPVTSYQEACSIPGIGKRMAEKIIEILESGHLRKLDHISESVPVLELFSNIWGAGTKTAQMWYQQGFRSLEDIRSQASLTTQQAIGLKHYSDFLERMPREEATEIEQTVQKAAQAFNSGLLCVACGSYRRGKATCGDVDVLITHPDGRSHRGIFSRLLDSLRQEGFLTDDLVSQEENGQQQKYLGVCRLPGPGRRHRRLDIIVVPYSEFACALLYFTGSAHFNRSMRALAKTKGMSLSEHALSTAVVRNTHGCKVGPGRVLPTPTEKDVFRLLGLPYREPAERDW
On to B1, for which the binding result was “binds”.

B2: (His)6-tagged Polλ244–575 (domain or fragment, human, UniProt Q9UGP5 244-575, looked up)
chain: PSSQKATNHNLHITEKLEVLAKAYSVQGDKWRALGYAKAINALKSFHKPVTSYQEACSIPGIGKRMAEKIIEILESGHLRKLDHISESVPVLELFSNIWGAGTKTAQMWYQQGFRSLEDIRSQASLTTQQAIGLKHYSDFLERMPREEATEIEQTVQKAAQAFNSGLLCVACGSYRRGKATCGDVDVLITHPDGRSHRGIFSRLLDSLRQEGFLTDDLVSQEENGQQQKYLGVCRLPGPGRRHRRLDIIVVPYSEFACALLYFTGSAHFNRSMRALAKTKGMSLSEHALSTAVVRNTHGCKVGPGRVLPTPTEKDVFRLLGLPYREPAERDW
Turning to B2, the binding result was “binds”.

The values are drawn from PMC3458577 (Nucleic Acids Research, 2012).
